Results taken from patent US20260232827A1 (Zymeworks, published 2026).

B1: v18992 (MX35), reference anti-NaPi2b antibody (antibody, human IgG1, kappa)
heavy 1: GQVQLVQSGAEVVKPGASVKMSCKASGYTFTGYNIHWVKQAPGQGLEWIGAIYPGNGDTSYKQKFRGRATLTADTSTSTVYMELSSLRSEDSAVYYCARGETARATFAYWGQGTLVTVSSASTKGPSVFPLAPSSKSTSGGTAALGCLVKDYFPEPVTVSWNSGALTSGVHTFPAVLQSSGLYSLSSVVTVPSSSLGTQTYICNVNHKPSNTKVDKKVEPKSCDKTHTCPPCPAPELLGGPSVFLFPPKPKDTLMISRTPEVTCVVVDVSHEDPEVKFNWYVDGVEVHNAKTKPREEQYNSTYRVVSVLTVLHQDWLNGKEYKCKVSNKALPAPIEKTISKAKGQPREPQVYVYPPSRDELTKNQVSLTCLVKGFYPSDIAVEWESNGQPENNYKTTPPVLDSDGSFALVSKLTVDKSRWQQGNVFSCSVMHEALHNHYTQKSLSLSPG
heavy 2: not shown
light: GDIQMTQSPSSLSASVGDRVTITCSASQDIGNFLNWYQQKPGKTVKVLIYYTSSLYSGVPSRFSGSGSGTDYTLTISSLQPEDFATYYCQQYSKLPLTFGQGTKLELKRTVAAPSVFIFPPSDEQLKSGTASVVCLLNNFYPREAKVQWKVDNALQSGNSQESVTEQDSKDSTYSLSSTLTLSKADYEKHKVYACEVTHQGLSSPVTKSFNRGEC
B2: MX35 (v18992), reference anti-NaPi2b antibody (antibody, human IgG1, kappa)
heavy 1: GQVQLVQSGAEVVKPGASVKMSCKASGYTFTGYNIHWVKQAPGQGLEWIGAIYPGNGDTSYKQKFRGRATLTADTSTSTVYMELSSLRSEDSAVYYCARGETARATFAYWGQGTLVTVSSASTKGPSVFPLAPSSKSTSGGTAALGCLVKDYFPEPVTVSWNSGALTSGVHTFPAVLQSSGLYSLSSVVTVPSSSLGTQTYICNVNHKPSNTKVDKKVEPKSCDKTHTCPPCPAPELLGGPSVFLFPPKPKDTLMISRTPEVTCVVVDVSHEDPEVKFNWYVDGVEVHNAKTKPREEQYNSTYRVVSVLTVLHQDWLNGKEYKCKVSNKALPAPIEKTISKAKGQPREPQVYVYPPSRDELTKNQVSLTCLVKGFYPSDIAVEWESNGQPENNYKTTPPVLDSDGSFALVSKLTVDKSRWQQGNVFSCSVMHEALHNHYTQKSLSLSPG
heavy 2: not shown
light: GDIQMTQSPSSLSASVGDRVTITCSASQDIGNFLNWYQQKPGKTVKVLIYYTSSLYSGVPSRFSGSGSGTDYTLTISSLQPEDFATYYCQQYSKLPLTFGQGTKLELKRTVAAPSVFIFPPSDEQLKSGTASVVCLLNNFYPREAKVQWKVDNALQSGNSQESVTEQDSKDSTYSLSSTLTLSKADYEKHKVYACEVTHQGLSSPVTKSFNRGEC
B3: v38591 (humanized anti-NaPi2b antibody, wild-type Fc) (antibody, human IgG1, kappa)
heavy: not shown
light: DVQMTQSPSSLSASVGDRVTITCRASQDVYSYLNWYQQKPGKAVKLLIYYTSRLQSGVPSRFSGSGSGTDYTLTISSLQPEDFATYYCQQYNIFPWTFGQGTKLEIKRTVAAPSVFIFPPSDEQLKSGTASVVCLLNNFYPREAKVQWKVDNALQSGNSQESVTEQDSKDSTYSLSSTLTLSKADYEKHKVYACEVTHQGLSSPVTKSFNRGEC
notes: also called v38591 Wild-type; H1L2
B4: v38591 (humanized anti-NaPi2b antibody, H1L2, wild-type Fc, heavy chains with C-terminal lysine) (antibody, human IgG1, kappa)
heavy: not shown
light: DVQMTQSPSSLSASVGDRVTITCRASQDVYSYLNWYQQKPGKAVKLLIYYTSRLQSGVPSRFSGSGSGTDYTLTISSLQPEDFATYYCQQYNIFPWTFGQGTKLEIKRTVAAPSVFIFPPSDEQLKSGTASVVCLLNNFYPREAKVQWKVDNALQSGNSQESVTEQDSKDSTYSLSSTLTLSKADYEKHKVYACEVTHQGLSSPVTKSFNRGEC
notes: Full-size human IgG1/kappa antibody; also called v38591 (wild-type Fc)
B5: v18993 (lifastuzumab), reference anti-NaPi2b antibody (antibody, human IgG1, kappa)
heavy 1: GEVQLVESGGGLVQPGGSLRLSCAASGFSFSDFAMSWVRQAPGKGLEWVATIGRVAFHTYYPDSMKGRFTISRDNSKNTLYLQMNSLRAEDTAVYYCARHRGFDVGHFDFWGQGTLVTVSSASTKGPSVFPLAPSSKSTSGGTAALGCLVKDYFPEPVTVSWNSGALTSGVHTFPAVLQSSGLYSLSSVVTVPSSSLGTQTYICNVNHKPSNTKVDKKVEPKSCDKTHTCPPCPAPELLGGPSVFLFPPKPKDTLMISRTPEVTCVVVDVSHEDPEVKFNWYVDGVEVHNAKTKPREEQYNSTYRVVSVLTVLHQDWLNGKEYKCKVSNKALPAPIEKTISKAKGQPREPQVYVYPPSRDELTKNQVSLTCLVKGFYPSDIAVEWESNGQPENNYKTTPPVLDSDGSFALVSKLTVDKSRWQQGNVFSCSVMHEALHNHYTQKSLSLSPG
heavy 2: not shown
light: GDIQMTQSPSSLSASVGDRVTITCRSSETLVHSSGNTYLEWYQQKPGKAPKLLIYRVSNRFSGVPSRFSGSGSGTDFTLTISSLQPEDFATYYCFQGSFNPLTFGQGTKVEIKRTVAAPSVFIFPPSDEQLKSGTASVVCLLNNFYPREAKVQWKVDNALQSGNSQESVTEQDSKDSTYSLSSTLTLSKADYEKHKVYACEVTHQGLSSPVTKSFNRGEC

Columns and labels:
[1] = molecular target: T1, human sodium-dependent phosphate transporter 2B (NaPi2b) (human, UniProt O95436 1-690); test: flow cytometry on IGROV-1 cells (endogenous NaPi2b), 24 h at 4 C, anti-human IgG Fc AF647
T1 construct: UniProt ID is given as 095436 [sic]; also called hNaPi2b; Hu NaPi2b
T1 sequence: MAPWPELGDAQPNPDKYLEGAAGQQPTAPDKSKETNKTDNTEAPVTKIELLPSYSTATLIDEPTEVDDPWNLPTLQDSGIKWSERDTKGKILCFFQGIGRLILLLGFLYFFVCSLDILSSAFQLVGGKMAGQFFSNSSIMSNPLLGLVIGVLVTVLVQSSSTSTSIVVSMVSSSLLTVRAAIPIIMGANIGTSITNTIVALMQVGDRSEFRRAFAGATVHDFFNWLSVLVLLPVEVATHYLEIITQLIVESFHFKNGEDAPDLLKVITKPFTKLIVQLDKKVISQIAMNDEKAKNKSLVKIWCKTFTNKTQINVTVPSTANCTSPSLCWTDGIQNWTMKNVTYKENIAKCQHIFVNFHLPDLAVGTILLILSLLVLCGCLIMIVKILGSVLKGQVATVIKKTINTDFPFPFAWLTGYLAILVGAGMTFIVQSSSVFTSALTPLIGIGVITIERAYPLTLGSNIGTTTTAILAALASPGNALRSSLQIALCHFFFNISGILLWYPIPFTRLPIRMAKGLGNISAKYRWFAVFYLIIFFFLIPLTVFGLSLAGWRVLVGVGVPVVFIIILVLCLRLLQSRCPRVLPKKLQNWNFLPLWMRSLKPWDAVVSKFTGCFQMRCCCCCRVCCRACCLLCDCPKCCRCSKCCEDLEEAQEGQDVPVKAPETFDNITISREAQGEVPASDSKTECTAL

[2] = molecular target: T2, Construct 6 (human NaPi2b del 317-333) (human, UniProt O95436 1-690); test: flow cytometry, transfected HEK293-6e cells, antibody 2 nM;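 note: transfected cells exposed to test antibody 24 h at 4 °C to block internalization, at least 1,000 events per well, background is mean MFI of unstained cells lacking primary antibody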
T2 construct: also called CL_#29919
T2 sequence: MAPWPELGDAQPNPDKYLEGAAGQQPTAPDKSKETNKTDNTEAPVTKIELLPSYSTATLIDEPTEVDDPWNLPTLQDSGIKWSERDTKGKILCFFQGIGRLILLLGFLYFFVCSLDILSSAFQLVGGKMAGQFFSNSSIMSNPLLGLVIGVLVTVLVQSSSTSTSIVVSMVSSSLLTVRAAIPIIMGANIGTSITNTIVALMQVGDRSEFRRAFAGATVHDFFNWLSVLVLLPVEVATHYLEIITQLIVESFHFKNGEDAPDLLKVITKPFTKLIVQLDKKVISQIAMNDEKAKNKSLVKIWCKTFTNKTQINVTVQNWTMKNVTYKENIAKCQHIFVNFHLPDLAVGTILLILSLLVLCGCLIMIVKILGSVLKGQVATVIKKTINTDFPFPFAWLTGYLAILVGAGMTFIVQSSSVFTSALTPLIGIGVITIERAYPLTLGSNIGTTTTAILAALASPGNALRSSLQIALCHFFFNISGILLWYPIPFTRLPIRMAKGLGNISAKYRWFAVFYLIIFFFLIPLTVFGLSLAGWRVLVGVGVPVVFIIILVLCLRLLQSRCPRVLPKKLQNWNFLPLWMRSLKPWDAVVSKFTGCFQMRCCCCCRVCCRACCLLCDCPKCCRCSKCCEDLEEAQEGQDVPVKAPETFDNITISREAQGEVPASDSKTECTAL

[3] = molecular target: T3, Construct 7 (human NaPi2b del 317-326) (human, UniProt O95436 1-690); test: as above
T3 construct: also called CL_#29921
T3 sequence: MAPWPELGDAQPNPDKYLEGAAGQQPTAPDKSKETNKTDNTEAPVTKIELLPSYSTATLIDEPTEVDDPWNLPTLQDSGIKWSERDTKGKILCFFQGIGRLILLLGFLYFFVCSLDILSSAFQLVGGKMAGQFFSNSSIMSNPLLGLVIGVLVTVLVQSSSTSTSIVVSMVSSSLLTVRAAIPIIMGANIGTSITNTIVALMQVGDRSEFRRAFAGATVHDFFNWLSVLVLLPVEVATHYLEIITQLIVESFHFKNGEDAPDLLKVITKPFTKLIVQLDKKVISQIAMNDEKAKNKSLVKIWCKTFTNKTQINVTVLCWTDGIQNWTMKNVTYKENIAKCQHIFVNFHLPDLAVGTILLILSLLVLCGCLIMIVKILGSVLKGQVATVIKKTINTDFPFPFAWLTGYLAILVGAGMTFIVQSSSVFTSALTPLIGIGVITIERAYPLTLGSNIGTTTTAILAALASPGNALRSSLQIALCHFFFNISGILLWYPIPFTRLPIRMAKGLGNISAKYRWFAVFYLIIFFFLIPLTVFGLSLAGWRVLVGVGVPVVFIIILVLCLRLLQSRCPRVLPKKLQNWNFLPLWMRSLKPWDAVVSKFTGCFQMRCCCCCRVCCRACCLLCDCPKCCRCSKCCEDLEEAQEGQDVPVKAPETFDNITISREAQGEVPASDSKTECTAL

[4] = molecular target: T4, Construct 5 (chimeric human NaPi2b, swap in NaPi2a in 304-348) (human); test: as above
T4 construct: also called CL_#13436

[5] = molecular target: T5, Construct 4 (chimeric human NaPi2b, swap in NaPi2c in 341-358) (human); test: as above
T5 construct: also called CL_#13435

[6] = molecular target: T6, Construct 1 (chimeric human NaPi2b, swap in NaPi2c in 239-259) (human); test: as above
T6 construct: also called CL_#29914

[7] = molecular target: T7, Full length human NaPi2b (sodium-dependent phosphate transporter 2B, SLC34A2) (human, UniProt O95436 1-690); test: as above
T7 construct: also called huNaPi2b; CL_#13432
T7 sequence: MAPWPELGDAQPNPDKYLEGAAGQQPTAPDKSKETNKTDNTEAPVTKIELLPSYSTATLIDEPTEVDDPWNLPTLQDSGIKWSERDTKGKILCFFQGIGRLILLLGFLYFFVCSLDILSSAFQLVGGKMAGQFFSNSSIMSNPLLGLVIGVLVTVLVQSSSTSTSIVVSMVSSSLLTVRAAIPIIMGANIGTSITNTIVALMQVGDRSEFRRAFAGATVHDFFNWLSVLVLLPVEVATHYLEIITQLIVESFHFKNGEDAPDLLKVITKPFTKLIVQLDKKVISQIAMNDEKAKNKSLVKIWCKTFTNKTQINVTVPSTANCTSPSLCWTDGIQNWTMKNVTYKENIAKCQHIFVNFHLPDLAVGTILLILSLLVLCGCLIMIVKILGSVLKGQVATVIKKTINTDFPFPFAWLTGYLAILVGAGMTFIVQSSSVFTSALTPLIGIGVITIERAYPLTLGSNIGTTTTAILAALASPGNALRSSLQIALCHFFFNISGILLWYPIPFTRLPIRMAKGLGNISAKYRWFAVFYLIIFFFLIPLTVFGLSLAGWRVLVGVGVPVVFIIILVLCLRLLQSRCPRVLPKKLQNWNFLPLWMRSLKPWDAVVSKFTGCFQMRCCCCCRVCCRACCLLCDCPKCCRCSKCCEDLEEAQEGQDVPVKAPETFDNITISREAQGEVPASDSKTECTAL

[8] = molecular target: T8, Construct 2 (chimeric human NaPi2b, swap in NaPi2c in 280-301) (human); test: as above
T8 construct: also called CL_#29915

[9] = molecular target: T9, Construct 3 (chimeric human NaPi2b, swap in NaPi2c in 304-321) (human); test: as above
T9 construct: also called CL_#29916

Binder | EC50 (read off the curve) [1] [nM] | Background-Subtracted AF647 Mean Fluorescence Intensity [2] [MFI] | Background-Subtracted AF647 Mean Fluorescence Intensity [3] [MFI] | Background-Subtracted AF647 Mean Fluorescence Intensity [4] [MFI] | Background-Subtracted AF647 Mean Fluorescence Intensity [5] [MFI] | Background-Subtracted AF647 Mean Fluorescence Intensity [6] [MFI] | Background-Subtracted AF647 Mean Fluorescence Intensity [7] [MFI] | Background-Subtracted AF647 Mean Fluorescence Intensity [8] [MFI] | Background-Subtracted AF647 Mean Fluorescence Intensity [9] [MFI]
B1 | ~2 | – | – | – | – | – | – | – | –
B2 | – | -59 | 76 | 16 | 611 | 1890 | 870 | 660 | 594
B3 | ~2 | – | – | – | – | – | – | – | –
B4 | – | -38 | 677 | -12 | 725 | 1550 | 948 | 832 | 743
B5 | ~3 | – | – | – | – | – | – | – | –
